Results from patent publication US20130149300A1 (ICON GENETICS, published 2013).

B1: Anti-Ebola virus produced in -XF plants (antibody)
heavy: not shown
light: QLVLTQSSSASASLGASVKLTCTLSRQHSTYTIEWYQQQPAKPPRYVMELKKDGSHSTGDGIPDRFSGSSSGADRYLTISSLQSEDEADYYCGVGDTIKEQFVYVFGTGTKVTVLGQPKAAPSVTLFPPSSEELQANKATLVCLISDFYPGAVTVAWKADSSPVKAGVETTTPSKQSNNKYAASSYLSLTPEQWKSHRSYSCQVTHEGSTVEKTVAPTECS
B2: Anti-Ebola virus produced in -XF +gal plants (antibody)
heavy: not shown
light: B1 light
B3: Anti-Ebola virus produced in wild type plants (antibody)
heavy: not shown
light: B1 light

Experiments:
human C1q = human C1q (human, UniProt P02745 23-245; P02746 28-253; P02747 29-245); assay: C1q binding ELISA, mAb coated at 2.5 µg/ml, human C1q added
human C1q, sequence (P02745 23-245 limits assumed, chain 1 of 3): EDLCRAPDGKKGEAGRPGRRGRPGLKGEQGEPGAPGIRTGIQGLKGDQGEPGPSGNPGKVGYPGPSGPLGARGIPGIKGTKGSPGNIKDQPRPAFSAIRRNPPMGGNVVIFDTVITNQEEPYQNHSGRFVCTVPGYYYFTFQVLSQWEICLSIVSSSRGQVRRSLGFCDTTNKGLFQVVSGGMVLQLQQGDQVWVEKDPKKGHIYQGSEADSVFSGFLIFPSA
human C1q, sequence (P02746 28-253 limits assumed, chain 2 of 3): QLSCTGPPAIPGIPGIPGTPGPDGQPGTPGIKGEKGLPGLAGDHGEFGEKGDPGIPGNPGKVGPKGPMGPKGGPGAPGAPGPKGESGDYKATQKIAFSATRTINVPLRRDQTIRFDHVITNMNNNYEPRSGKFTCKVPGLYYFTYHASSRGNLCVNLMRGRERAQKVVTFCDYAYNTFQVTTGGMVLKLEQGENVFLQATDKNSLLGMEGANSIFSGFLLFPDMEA
human C1q, sequence (P02747 29-245 limits assumed, chain 3 of 3): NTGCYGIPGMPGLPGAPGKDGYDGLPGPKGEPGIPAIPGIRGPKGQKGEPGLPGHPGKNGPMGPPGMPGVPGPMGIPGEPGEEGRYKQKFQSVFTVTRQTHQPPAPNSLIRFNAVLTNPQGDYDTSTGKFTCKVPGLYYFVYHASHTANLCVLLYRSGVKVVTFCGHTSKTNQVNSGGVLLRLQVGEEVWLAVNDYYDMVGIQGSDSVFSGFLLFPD

Recombinant human FcγRI = molecular target: T1, Recombinant human FcγRI (human, UniProt P12314 16-288); assay: SPR (Biacore), receptor amine-coupled to CM5 chip, mAb flowed, 1:1 fit
T1 construct: also called FcγRI (CD64); CD64
T1 sequence (P12314 16-288 limits assumed): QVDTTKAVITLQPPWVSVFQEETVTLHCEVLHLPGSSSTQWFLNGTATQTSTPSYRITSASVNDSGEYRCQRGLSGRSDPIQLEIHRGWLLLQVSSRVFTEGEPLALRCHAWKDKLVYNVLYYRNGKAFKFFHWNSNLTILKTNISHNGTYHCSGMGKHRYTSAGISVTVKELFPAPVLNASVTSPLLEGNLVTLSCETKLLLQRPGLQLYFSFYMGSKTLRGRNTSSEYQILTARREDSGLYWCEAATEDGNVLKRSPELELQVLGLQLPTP

[1] = molecular target: T2, Recombinant human FcγRIIIA (human, UniProt P08637 17-208); assay: as above
T2 construct: also called FcγRIIIA (CD16); CD16
T2 sequence (P08637 17-208 limits assumed): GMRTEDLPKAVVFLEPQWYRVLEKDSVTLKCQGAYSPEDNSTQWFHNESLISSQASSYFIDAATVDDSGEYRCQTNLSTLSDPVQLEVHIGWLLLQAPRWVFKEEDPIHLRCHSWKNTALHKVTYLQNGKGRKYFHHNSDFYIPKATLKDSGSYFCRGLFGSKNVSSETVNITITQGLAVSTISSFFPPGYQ

Row | Binder | Absorbance (human C1q) | Kd (Recombinant human FcγRI) | Kd [1]
1 | B1 | 0.49 absorbance at 450 nm | 16 nM | 25 nM
2 | B2 | 0.96 absorbance at 450 nm | 15 nM | 26 nM
3 | B3 | 0.92 absorbance at 450 nm | 42 nM | 72 nM
